Measured values as given in the supplement of paper PMC12042874.
± gives the uncertainty stated by the source.

Assay: amyloid nucleation score (Sup35N fusion, yeast selection) (log enrichment); library NNK1; higher = more nucleation; inactive = no reads after selection
Method in brief: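 Random libraries were run with three technical output replicates. In each, psi-negative yeast expressing Sup35N fused to peptides of 20 random codons were induced 24 hours with 100 μM copper sulfate and grown 7 days at 30°C on medium lacking adenine and uracil, and input and output plasmid inserts were Illumina-sequenced. The nucleation score is the DiMSum log enrichment of output over input reads, centred on the mode score of non-aggregating sequences, and sequences under 100 input reads were excluded.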

| Substance | amyloid nucleation score |
| --- | --- |
| NLKIQCSS | 0.004 ± 0.39 |
| CESQMSRVDVLSCYMYGSVM | 0.303 ± 0.4 |
| YLVWCIESITLGFMGELGAR | 0.199 ± 0.57 |
| NGFRTSTSCVILLPFCKGQK | -0.129 ± 0.57 |
| RYRRATTQFAKGHCRSLSFK | 0.91 ± 0.47 |
| PSTREYFNCTKMAYYCIRRP | -0.005 ± 1.7 |
| LRVYHSYFFSWSSTSLLPAG | 0.219 ± 0.76 |
| GDLKSILVVLFSSLCVPTLR | 1.26 ± 0.21 |
| WFYTVARPNVSSSLESRTEP | 0.137 ± 0.22 |
| PYWLINIQEVTTD | 0.654 ± 0.48 |
| TKIGKYKFAYCNAIAGARVE | 0.766 ± 0.87 |
| WSFQPGRVVFHMFERGDHCC | 0.187 ± 0.4 |
| RWGRESRLRV | -0.122 ± 0.29 |
| TARFLTKFAPGQSMNAYRCG | -0.033 ± 0.6 |
| AISLVAVRFMGMGEGVSDKN | 5.33 ± 0.1 |
| RSFSCLSQVFTYVPLTVRET | 0.22 ± 0.6 |
| REPACYSKVTLADKYRLVSE | 1.26 ± 0.74 |
| AFVVYMNFFHCLESNIVEWH | 5.61 ± 0.073 |
| ASRYRKFTLWN | -0.466 ± 0.31 |
| YYGNTRWLDYMPLL | inactive |
| VSLVMWVYCGDDWLSFAIRA | -0.211 ± 0.38 |
| CMAHIYCWDICYNERWGFYI | 4.11 ± 0.052 |

| Substance | amyloid nucleation score |
| --- | --- |
| GGWFIINRHHLCYSRNLPPE | 0.271 ± 0.69 |
| LIMNFGGRLRVAGFGVLVMD | 2.09 ± 0.15 |
| SFVHYFKESLAVSSLIRLSN | -0.333 ± 1.1 |
| WEFRRWGLRLHLSFLASLGA | -0.015 ± 0.25 |
| LGECFTGTDRLLEGLVSCES | 0.776 ± 0.88 |
| LMGMRPFELHRRRGHGHVLG | -0.019 ± 0.64 |
| HDLVKVFSFCVWP | 3.02 ± 0.19 |
| WRAYFACYNILESAFLLVQL | inactive |
| SWFKSWSPKALSARIGRVYL | -0.176 ± 0.55 |
| PITFS | 0.448 ± 0.68 |
| DPVSIMTGRQDPRGCGVTCF | -1.96 ± 2.7 |
| LFIVSNFLWLIPKWTNSAKF | -1.66 ± 1.4 |
| TVANT | 0.888 ± 1.1 |
| SASDVWCLQMLRSVYFPPQG | inactive |
| MWVNLVWTAFLYKSILCRVF | 0.38 ± 1.2 |
| GRFGVGVWW | 0.127 ± 0.46 |
| ENSPLK | 0.493 ± 0.4 |
| IFTRLSLSFHNLGLGWKTRV | -0.248 ± 0.38 |
| RACLQRWPNMRITCC | -0.005 ± 1.2 |
| GKSWLSMKNQISINRRSMIP | -0.449 ± 0.5 |
| SPPLSASS | -0.476 ± 1.9 |
| KMRKIDAR | 2.63 ± 0.11 |

| Substance | amyloid nucleation score |
| --- | --- |
| EYVMIRHAVLIKMFSMLKRV | -0.577 ± 0.45 |
| PLLLNEVKRL | 0.614 ± 0.29 |
| RSVRCVLLVAINRVMLG | 0.52 ± 0.67 |
| KSPRFASTYPLSSSYSLRVI | -0.327 ± 0.28 |
| WKASFIRFWFVAIMFMYNLC | -0.1 ± 0.42 |
| LFALQGHGILSVHSFVRHWG | 0.165 ± 1.1 |
| SAWCRSIM | 0.952 ± 0.27 |
| IYMMECEVL | -0.157 ± 0.42 |
| RMKLTQLGYSRGNDSLSVLL | -0.813 ± 1.4 |
| LASGRRPSQPGVRRVAKTTG | 0.392 ± 0.34 |
| RIRVI | 0.544 ± 0.63 |
| NSAKLIARLWMMWDLATSDW | -0.89 ± 0.46 |
| GFCFNECFLAGV | -0.285 ± 0.59 |
| WYVMRLKLVCI | 0.156 ± 0.87 |
| GYMCLSL | 0.395 ± 0.29 |
| YMNWFITGHDVGRYLIQFFV | -1.74 ± 2.4 |
| NCERVTDYELIRGSSILKVV | 0.311 ± 0.73 |
| QESEMVCDLSGMAFLSGLVY | -0.442 ± 0.51 |
| WVWFCNEF | -0.307 ± 0.57 |
| SSTSSRCHTSANLVRLVNGR | 0.714 ± 0.33 |
| NILVAIL | -1.45 ± 1.4 |
| SLPRSSIRYRFQCVRLESVM | -0.601 ± 0.47 |

| Substance | amyloid nucleation score |
| --- | --- |
| ERNRHKVIMFMTSPWEMVIL | -1.06 ± 2.4 |
| PLRSRSGVSL | 1.09 ± 0.62 |
| GTGRVLVIAKALNYCCIS | 6.811 ± 0.054 |
| FSNTCWNLKYHSNGAANFFV | 0.136 ± 0.96 |
| GLSAEYFHFPVKRAVSMTLV | -0.049 ± 0.6 |
| SCRSRTYERCLSLVNMEREG | 3.27 ± 0.13 |
| IFSRSEEFVFFGHINSV | 1.68 ± 0.32 |
| ISTSC | 0.778 ± 0.49 |
| IADGTLTVSL | 0.609 ± 0.32 |
| TRCASC | 0.3 ± 0.65 |
| CGNSFTKLTTMLTRHHIADG | 0.437 ± 0.38 |
| NKAFGMIV | -0.103 ± 0.79 |
| AMGTLVIKGRYFYIFSASFG | -1.52 ± 2.4 |
| FSIAASASTLFDGFVIWRF | 0.027 ± 0.5 |
| HDLHFFHGVAARQNVRRAYR | 0.724 ± 1 |
| IGALTSHAHQNVCVCNLLKD | 0.307 ± 0.81 |
| SSMSPTVYVVRR | 0.163 ± 0.9 |
| VGDYFFGDDSIGGSRMHVSY | 1.15 ± 0.65 |
| WFWIMIFRHCNVIL | 0.404 ± 0.5 |
| VGVVCLKFLP | -0.064 ± 0.43 |
